# Experiment: yeast display, Sf9 membrane polyspecificity reagent, FACS + sequencing; frameworks hold sequencing errors
# Method in brief: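 Using colony PCR, genes from sorted yeast display clones were amplified, then sequenced on MiSeq at 2 × 250 and filtered by CDR length. The clones had been stained with 10% biotinylated, detergent-solubilized Sf9 membrane reagent for 1 hour at 4 °C and sorted by FACS into low and high (top ~1%) gates on anti-HA and streptavidin fluorescence. Polyreactivity labels come from the gate of origin.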
row,Sequence,polyreactivity (PSR sort gate)
1,QVQLVESGGGLVQAGGSLRLSCAASGFTFEGYAMGWYRQAPGKERELVAAISSNGGRTYYADSVKGRFTISRDNAKNTVYLQMNSLKPEDTAVYYCNARRAYSGPDYDYYHGRRYDYWGQGTQVTVSS,low polyreactivity
2,QVQLVESGGGLVQAGGSLRLSCAASGFTFERNAMGWYIQAPGKERELVATINGSSDSTYYADSVKGRFTISRDNAKNTVYLQMNSLKPEDTAVYYCNADSITEGNSRYSHFDYWGQGTQVTVSS,low polyreactivity
3,QVQLVESGGGLVQAGGSLRLSCAASGFTFESYAMGWYRQAPGKERELVAAISWNGGSTYYADSVKGRFTISRDNAKNTVYLQMNSLKPADTAVYYCAARGRAPRFRRIGYDYWGQGTQVTVSS,high polyreactivity
4,QVQLVESGGGLVQAGGSLRLSCAASGFTFEYYAMGWSRQAPGKETELVATITWNGGSTYYADSVKGRFTISRDNAKNTVYLQMNSLKPVDTAVYYCAADEQAYYVRRFDYWGQCTQVTVSS,low polyreactivity
5,QVQLVESGGGLVQAGGSLRLSCAASGFTFEYYAMGWYRQAPGKERELVAAIRSDSGTNYADSVKGRFTISRDNAKNTVYLQMNSLIPEDTAVYYCAAPTVVLIDYDYWGQGTQVTVSS,low polyreactivity
6,QVQLVESGGGLVQAGGSLRLSCAASGFTFFDNAMGWYRQAPGKERELVAAITWSDGSTYYADSVKGRFTISRDNAKNTVYLQMNSLKPEDTAVYYCAVGFISYSYSNYYDVWYEYYYWGQGTQVTVSS,low polyreactivity
7,QVQLVESGGGLVQAGGSLRLSCAASGFTFFFNAMGWYRQAPGKERELVASIRSDGDTNYADSVKGRFTISRDNAKNTVYLQMNSLKPEDTAVYYCAKVWYVFRYVSTEYDYWGQGTQVTVSS,high polyreactivity
8,QVQLVESGGGLVQAGGSLRLSCAASGFTFFFYAMGWYRQAPGKVRELVAGISQSGGNTNYADSVKGRFTISRDNAKNTVYLQMNSLKPEDTAVYYCAKTRYQYWRVTAFDYWGQGTQVTVSS,low polyreactivity
9,QVQLVESGGGLVQAGGSLRLSCAASGFTFFGYAMGWYRQAPGKERELVATISDTGGSTYADSVKGRFTISRDNAKNTVYLQMNSLKPEDTAVYYFNARSVFYSMDYWGQGTQVTVSS,low polyreactivity
10,QVQLVESGGGLVQAGGSLRLSCAASGFTFFIYVMGWYRQAPGKEREYVAAISSSGDSTYYADSVKGRFTISRDNAKNTVYLQMNSLIPEDTAVYYCNAGDKVSSYWYDYWGQGTQVTVSS,low polyreactivity
11,QVQLVESGGGLVQAGGSLRLSCAASGFTFFPYAMGWYRQAPGKEREFVAANFSDGSTYYADSVKGRFTISRDNAKNTVYLQINILKPEDTAVYYWAAAWYEQAYQTGYFEFDYWGLGTQVTVSS,low polyreactivity
12,QVQLVESGGGLVQAGGSLRLSCAASGFTFFSNAMGWYREAPGQERELVASITNDGSTYADSVKGRFTISRDNAKNTVYLQMNSLKPEDTAVYYCAARFPQWRYSRRTCERFDYWGQGTQVTVSS,low polyreactivity
13,QVQLVESGGGLVQAGGSLRLSCAASGFTFFSNAMGWYRQAPGKERELVASISASGSGTYYADSVKGRFTISRDNAKNTVYLQMNSLKPEDTAVYYCAAQYRVNARSGVYRGYRYNYWGQGTQVTVSS,high polyreactivity
14,QVQLVESGGGLVQAGGSLRLSCAASGFTFFTNAMGWYRQAPGKEREFVAAISKSGSRTYYADSVKGRFTISRDNAKNTVYLQMNSLKPEDTAVYYCAAGYVTLFGFYRYYLWGQGTQVTVSS,high polyreactivity
15,QVQLVESGGGLVQAGGSLRLSCAASGFTFFVYAMGWYRKAPGKERELVATINWSGASTYYADSVKGRFTISRDNAKNTVYLQMNSLKPEDTAVYYCDKDGHYPLVYLAFDYWGQGTQVTVSS,low polyreactivity
16,QVQLVESGGGLVQAGGSLRLSCAASGFTFFVYGMGWYRQAPGKERELVATINWSGASTYYADSVKGRFTISRDNAKNTVYLQMNSLKPEDTAVYSCAKDGHYPLVYLAFDYWGQGTQVTVSS,low polyreactivity
